Test results reported in paper PMC8801479, “The anti-Müllerian hormone prodomain is displaced from the hormone/prodomain complex upon bivalent binding to the hormone receptor” (The Journal of Biological Chemistry, 2021).

B1: anti-Müllerian hormone growth factor (AMH GF), the mature C-terminal domain (ligand, human, UniProt P03971 452-560, looked up)
chain: SAGATAADGPCALRELSVDLRAERSVLIPETYQANNCQGVCGWPQSDRNPRYGNHVVLLLKMQVRGAALARPPCCVPTAYAGKLLISLSEERISAHHVPNMVATECGCR
notes: C-terminal growth factor (GF) domain of human AMH, the mature product of cleavage at the monobasic site (R451); Disulfide-linked homodimer; also called mature GF; C-terminal GF; source: in the prodomain/GF rows it is the GF part of c-AMH (CHO cells, plasmin cleaved)
B2: mature BMP-7 growth factor (unmodified mature domain) (ligand, human, UniProt P18075 293-431, looked up)
chain: STGSKQRSQNRSKTPKNQEALRMANVAENSSSDQRQACKKHELYVSFRDLGWQDWIIAPEGYAAYYCEGECAFPLNSYMNATNHAIVQTLVHFINPETVPKPCCAPTQLNAISVLYFDDSSNVILKKYRNMVVRACGCH
notes: mature growth factor (GF) domain of human BMP-7; also called BMP-7 GF; source: CHO cells; mature BMP-7 eluted from Zn-chelating Sepharose with 6 M urea

Columns and labels:
[1] = biological target: T1, AMHR2-Fc/Fc, heterodimer of one AMHR2-Fc chain (extracellular domain of human AMHR2 fused to human IgG1 Fc) … (human, UniProt Q16671 18-149; P01857 104-330 = IgG part); assay: ELISA; AMHR2-Fc/Fc (0.75 ug/ml) captured on goat antihuman Fc Ab coated on the plate; c-AMH or GF serially diluted, 2 to 4 h; bound AMH detected with biotinylated mAb-C1 (GF) or mAb-N1 (prodomain) and SA-HRP; data fit to the quadratic equation for a reversible association reaction; conditions: both partners purified
T1 construct: extracellular domain of human anti-Müllerian hormone receptor type-2 (AMHR2); Fc portion of human IgG1 (Ig gamma-1 chain constant region), the Fc-only chain; Functionally monovalent for AMHR2; also called soluble receptor; soluble AMHR2; source: human embryonic kidney 293E cells, purified from conditioned medium (Protein A Sepharose, size-exclusion chromatography); copies: 1 + 1

[2] = biological target: T2, BMP-7 prodomain biotinylated through amines (human, UniProt P18075 30-292, biotin through amines (EZ-Link NHS-PEG4-Biotin)); assay: ELISA; BMP-7 complexes with biotinylated prodomain or biotinylated GF captured on anti-BMP-7 GF mAb; bound prodomain or GF detected with SA-HRP (biotinylated prodomain preparation also added as preformed complex with SA-HRP); 0.1% Tween-20 in all incubations; Kd from modeling of the concentration dependence; conditions: both partners purified
T2 construct: prodomain of human bone morphogenetic protein 7 (BMP-7); 90% pure, with about 10% unprocessed BMP-7; also called biotinylated prodomain; source: CHO cells; soluble BMP-7 biotinylated, prodomain eluted from Zn-chelating Sepharose with 50 mM imidazole
T2 sequence (P18075 30-292): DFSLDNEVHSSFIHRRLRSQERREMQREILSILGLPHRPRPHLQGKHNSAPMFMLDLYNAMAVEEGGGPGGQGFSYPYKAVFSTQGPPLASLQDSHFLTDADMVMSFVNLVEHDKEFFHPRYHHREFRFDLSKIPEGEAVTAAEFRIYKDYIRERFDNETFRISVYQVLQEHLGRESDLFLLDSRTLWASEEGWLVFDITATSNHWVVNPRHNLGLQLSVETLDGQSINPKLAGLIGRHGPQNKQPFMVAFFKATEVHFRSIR

Kd [1]	Kd [2]	Binder
30 pM	–	B1
–	100 to 200 pM	B2
